T1: NST1-GST fusion protein (Arabidopsis thaliana, UniProt Q84WP6 1-365)
T1 sequence (looked up): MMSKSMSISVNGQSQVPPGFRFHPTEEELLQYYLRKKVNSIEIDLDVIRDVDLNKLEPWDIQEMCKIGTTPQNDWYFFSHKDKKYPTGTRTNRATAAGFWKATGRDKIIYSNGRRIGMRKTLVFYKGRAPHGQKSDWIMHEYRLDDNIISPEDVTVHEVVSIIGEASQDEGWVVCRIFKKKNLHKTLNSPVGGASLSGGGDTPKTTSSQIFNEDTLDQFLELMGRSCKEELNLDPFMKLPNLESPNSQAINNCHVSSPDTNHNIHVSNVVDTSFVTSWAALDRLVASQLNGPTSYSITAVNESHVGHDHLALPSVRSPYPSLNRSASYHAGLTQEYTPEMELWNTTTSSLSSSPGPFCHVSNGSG

B1: SnRK2.6-6xHis fusion protein (enzyme, Arabidopsis thaliana, UniProt Q940H6 1-362, looked up)
chain: MDRPAVSGPMDLPIMHDSDRYELVKDIGSGNFGVARLMRDKQSNELVAVKYIERGEKIDENVKREIINHRSLRHPNIVRFKEVILTPTHLAIVMEYASGGELFERICNAGRFSEDEARFFFQQLISGVSYCHAMQVCHRDLKLENTLLDGSPAPRLKICDFGYSKSSVLHSQPKSTVGTPAYIAPEVLLKKEYDGKVADVWSCGVTLYVMLVGAYPFEDPEEPKNFRKTIHRILNVQYAIPDYVHISPECRHLISRIFVADPAKRISIPEIRNHEWFLKNLPADLMNDNTMTTQFDESDQPGQSIEEIMQIIAEATVPPAGTQNLNHYLTGSLDIDDDMEEDLESDLDDLDIDSSGEIVYAM
B2: SnRK2.2-6xHis fusion protein (enzyme, Arabidopsis thaliana, UniProt Q39192 1-362, looked up)
chain: MDPATNSPIMPIDLPIMHDSDRYDFVKDIGSGNFGVARLMTDRVTKELVAVKYIERGEKIDENVQREIINHRSLRHPNIVRFKEVILTPSHLAIVMEYAAGGELYERICNAGRFSEDEARFFFQQLISGVSYCHAMQICHRDLKLENTLLDGSPAPRLKICDFGYSKSSVLHSQPKSTVGTPAYIAPEILLRQEYDGKLADVWSCGVTLYVMLVGAYPFEDPQEPRDYRKTIQRILSVTYSIPEDLHLSPECRHLISRIFVADPATRITIPEITSDKWFLKNLPGDLMDENRMGSQFQEPEQPMQSLDTIMQIISEATIPTVRNRCLDDFMADNLDLDDDMDDFDSESEIDVDSSGEIVYAL
B3: SnRK2.3-6xHis fusion protein (enzyme, Arabidopsis thaliana, UniProt Q39193 1-361, looked up)
chain: MDRAPVTTGPLDMPIMHDSDRYDFVKDIGSGNFGVARLMRDKLTKELVAVKYIERGDKIDENVQREIINHRSLRHPNIVRFKEVILTPTHLAIIMEYASGGELYERICNAGRFSEDEARFFFQQLLSGVSYCHSMQICHRDLKLENTLLDGSPAPRLKICDFGYSKSSVLHSQPKSTVGTPAYIAPEVLLRQEYDGKIADVWSCGVTLYVMLVGAYPFEDPEEPRDYRKTIQRILSVKYSIPDDIRISPECCHLISRIFVADPATRISIPEIKTHSWFLKNLPADLMNESNTGSQFQEPEQPMQSLDTIMQIISEATIPAVRNRCLDDFMTDNLDLDDDMDDFDSESEIDIDSSGEIVYAL

Biological target: T1, NST1-GST fusion protein
Experiment: pull-down

binding result	Binder
binds	B1
binds	B2
binds	B3
